Results on 167 variants are retold here after the RNAGym collection of RNA variant scans (doi:10.7554/elife.80360).

B1: HDV Ribozyme (parent)
chain: GGCCGGCAUGGUCCCAGCCUCCUCGCUGGCGCCGGCUGGGCAACAUUCCGAGGGGACCGUCCCCUCGGUAAUGGCGAAUGGGACCCA

Variants of B1 are the subject of this data set. Kind of data set: self-cleavage, relative activity (ratio to wild type); higher = more cleavage; co-transcriptional.
Take G29U C33U: the self-cleavage came out at 0.0563. As to C30A C84G, the self-cleavage was 0. Take C30A G59U: the self-cleavage came to 0.637.

Turning to G29A C57G, the self-cleavage was found to be 0.267. In the case of G29U A71U, the self-cleavage stood at 0.0831. For the variant C30G G53U, the self-cleavage was 0.103.

As for C30G G53C, the self-cleavage turned out to be 0.237. Take C30U C85U: the self-cleavage was determined as 0.787. Consider C30G C75A, for which the self-cleavage is 0.0583. In the case of G29U C84A, the self-cleavage came out at 0.117.

With C30U G52U, the self-cleavage is 0.709. Consider C30U G52C, for which the self-cleavage was determined as 0.709.

On to C30G G76A, for which the self-cleavage amounted to 0.0554.

Consider C30G G76C, for which the self-cleavage was determined as 0.117. Consider G29U G68U, for which the self-cleavage amounted to 0.135. Consider G29U G68A, for which the self-cleavage is 0.0886. On to C30G A45U, for which the self-cleavage is 0.107.

As for G28C G82C, the self-cleavage came to 0.0475. As for G28U C62G, the self-cleavage is 0.0415.

Regarding G29C U60A, the self-cleavage was found to be 0.0426. On to G29U C85U, for which the self-cleavage amounted to 0.086. Consider G29U C85G, for which the self-cleavage is 0.

As for G29A C64A, the self-cleavage came to 0.22.

As to G29A C64G, the self-cleavage came to 0.202.

As to G28U C58U, the self-cleavage turned out to be 0.185. For the variant G28U C58A, the self-cleavage is 0.208. Regarding G29C G35C, the self-cleavage is 0.0405. On to G28U G39U, for which the self-cleavage amounted to 0.119. On to C30G G40A, for which the self-cleavage is 0.0923. Turning to C30A C66G, the self-cleavage came out at 0.675.

Consider G29C A45U, for which the self-cleavage is 0.0519. Turning to G29C A43C, the self-cleavage came out at 0.0489. Next, G29A C75G: 0.0346; G29A A77U: 0.187; C30A C44U: 0.132. In the case of G29C C58U it was 0.104. As for G29C C58G, the self-cleavage worked out at 0.156.

With G29A A78U, the self-cleavage was 0.143. In the case of G28C G68A, the self-cleavage was 0.0475.

Regarding G29C A78C, the self-cleavage is 0.0519.

In the case of G29U C63U, the self-cleavage stood at 0. Turning to G28U C75U, the self-cleavage was 0.136. Next, G28U C75G: 0.0302. For C30G G81C, the self-cleavage was found to be 0.032. C30G U46G: the self-cleavage worked out at 0.0361.

In the case of C30G U46A, the self-cleavage stood at 0.0906. In the case of C30G C61A it was 0.0252; in that of C30G C61G, 0.157; in that of C30A U72A, 0.123. In the case of C30A U72C it was 0.142; in that of G28C G34A, 0.146; in that of C30U C33A, 0.0268. Next, G29A C41A: 0.0405; G29A C41U: 0.25. With G28C G52A, the self-cleavage came out at 0.119. Next, G28U A51U: 0.166; C30G A71G: 0.0339. For the variant G29C A56U, the self-cleavage came out at 0.0755. Turning to C30A U46C, the self-cleavage amounted to 0.237. For the variant C30U G35A, the self-cleavage stood at 0.136. Turning to G28U A70G, the self-cleavage came out at 0.0707. On to G28U A70C, for which the self-cleavage is 0.131. Regarding C30U C66A, the self-cleavage amounted to 0.684. As for G29U C61G, the self-cleavage was found to be 0.203. G29U G82A: the self-cleavage was found to be 0.0282. As for G29A G59U, the self-cleavage is 0.149. Take G28U G68A: the self-cleavage was 0.182.

For the variant G28U G68U, the self-cleavage was found to be 0.0386. In the case of C30A U37C, the self-cleavage stood at 0.199. With C30U C75G, the self-cleavage came out at 0.0554.

Turning to C30A G55U, the self-cleavage stood at 0.458.

For G29A A83C, the self-cleavage was found to be 0.148. In the case of C30G C63A, the self-cleavage amounted to 0.229. Regarding G29C G74C, the self-cleavage is 0.032. G29U A42G: the self-cleavage was determined as 0.148.

Turning to G29U A42U, the self-cleavage amounted to 0.102. As to C30G G54C, the self-cleavage was 0.095.

Take C30G G54U: the self-cleavage worked out at 0.148.

For C30A C48A, the self-cleavage turned out to be 0.635. Next, C30G C62G: 0; G29U A78G: 0.0378; G29U A78U: 0.0287. As to C30U G38A, the self-cleavage stood at 0.0773. Turning to G28U G80A, the self-cleavage stood at 0.0681.

On to G29U G40U, for which the self-cleavage is 0.0923. In the case of G29A G82A it was 0.109; in that of C30G C32G, 0.0627; in that of C30G C32U, 0.113.

With G28U A45U, the self-cleavage is 0.193. As for C30A U47C, the self-cleavage was 0.314. Consider G29U G80C, for which the self-cleavage turned out to be 0.0504. In the case of G29U G80U it was 0.0885; in that of G29C G68U, 0.0302. Regarding G29A U46A, the self-cleavage came to 0.156. On to G29C U65G, for which the self-cleavage stood at 0.123. Next, G29C U65A: 0.095; C30U A51U: 0.791. Take G29A C85G: the self-cleavage worked out at 0.119. On to C30U C57A, for which the self-cleavage was 0.787. In the case of C30U C57U it was 0.932; in that of G29U G53U, 0.0213.

Consider G29C G82U, for which the self-cleavage was 0.0959. As to G29U A43G, the self-cleavage is 0.131. As for G28U G40U, the self-cleavage turned out to be 0.0277. Turning to G28U G40C, the self-cleavage was determined as 0.215.

Consider G28U A83G, for which the self-cleavage was determined as 0.0569. Turning to G29U G50U, the self-cleavage stood at 0.12. Next, G29C C75G: 0.131; G29C C75U: 0.0287; G29C C62U: 0. G29C C62A: the self-cleavage is 0.

As to C30U C32U, the self-cleavage came out at 0.7. In the case of G29U G76A, the self-cleavage amounted to 0.107. For G29C G59U, the self-cleavage is 0.163. For the variant G29C G59A, the self-cleavage was 0.0332. In the case of G29C G50A, the self-cleavage turned out to be 0.0277. For G29C G50C, the self-cleavage came out at 0. For C30A C32G, the self-cleavage was found to be 0.101.

For the variant C30A G80A, the self-cleavage was 0.105.

Regarding C30A C61G, the self-cleavage turned out to be 0.583.

For C30A C61U, the self-cleavage stood at 0.601. G29C G80A: the self-cleavage was 0.0692. Consider G29C G80U, for which the self-cleavage was found to be 0.0953. Turning to G29A C63A, the self-cleavage worked out at 0.147. In the case of G29A C49U it was 0.237; in that of G29U C30A, 0.155; in that of G29U C30G, 0.0923. Take G29C A83U: the self-cleavage came to 0.0462. On to G29C A83G, for which the self-cleavage came out at 0.0863. In the case of C30U C62A, the self-cleavage was 0.562. In the case of G29C C64U it was 0.0594; in that of G29C G31C, 0; in that of G29U G52U, 0.0875. In the case of G29C A71U it was 0.122; in that of G29C A71G, 0. With C30A A87U, the self-cleavage worked out at 0.537. Next, C30A A87G: 0.614; C30U C44U: 0.289; C30U C44G: 0.135. In the case of C30U C44A it was 0.117; in that of G28C U69C, 0.101; in that of G28C U69A, 0.123. Consider G28C U69G, for which the self-cleavage was determined as 0.156.

Take G29C C85U: the self-cleavage is 0.108. For the variant G29C G67U, the self-cleavage was found to be 0.0773. With G29C G67A, the self-cleavage came out at 0.0739.

C30A C49A: the self-cleavage was 0.405. C30A C86U: the self-cleavage was 0.68.

Regarding C30U A70G, the self-cleavage worked out at 0.8. In the case of G28C G38A it was 0.0415; in that of C30A A77C, 0.0852; in that of G28C U46A, 0.107.

Consider C30G G38U, for which the self-cleavage turned out to be 0.114. In the case of G29U U60G it was 0.175; in that of C30A G39U, 0.185. In the case of C30A C75A it was 0.166; in that of C30A C75G, 0. As for G29U G31U, the self-cleavage is 0.0804. For the variant G29U G31A, the self-cleavage came out at 0.135. As to C30G U47A, the self-cleavage turned out to be 0.0354. For the variant C30G U47C, the self-cleavage came to 0.0941. Turning to G29A G54U, the self-cleavage was found to be 0.119. Take G29A C58A: the self-cleavage amounted to 0.318.

In the case of C30G U69G, the self-cleavage came to 0. On to G29U G81C, for which the self-cleavage was 0.086.

As for G28U C57G, the self-cleavage was 0.0773. As to C30A C58U, the self-cleavage came to 0.318.
